The record followed here is PMC2229591.

As usually defined, the stoichiometry N is the number of molecules, sites or subunits per partner or assembly.

Experiment [1] deals with filamentous actin (rabbit muscle) (rabbit) (UniProt P68135). Put plainly: co-sedimentation. To be noted: scale: actin per fragment.
Experiment [2] concerns the target C0 fragment of cardiac myosin binding protein C (MyBP-C) (human). The experiment is described as follows: pull-down + co-IP.

With “C0C2 fragment of cardiac MyBP-C (domain or fragment)”, the stoichiometry N in experiment [1] worked out at 7.

Consider “filamentous actin (rabbit muscle) (from UniProt P68135 1-377) (natural protein)”, for which the concentration that gives half-maximum binding in experiment [2] was below 10 µM.
